The values below come from US20150239929A1 (PORTOLA PHARMACEUTICALS, published 2015).

The labels stand for the following.
B1: Soybean Trypsin Inhibitor (STI), immobilised on affinity resin (other, Glycine max (soybean), UniProt P01070 25-205, looked up)
chain: DFVLDNEGNPLENGGTYYILSDITAFGGIRAAPTGNERCPLTVVQSRNELDKGIGTIISSPYRIRFIAEGHPLSLKFDSFAVIMLCVGIPTEWSVVEDLPEGPAVKIGENKDAMDGWFRLERVSDDEFNNYKLVFCPQQAEDDKCGDIGISIDHDDGTRRLVVSKNKPLVVQFQKLDKESL
notes: also called STI-Agarose
B2: r-Antidote (fXa derivative, cleaved two-chain polypeptide of SEQ ID NO: 2) (enzyme)
light: ANSFLFWNKYKDGDQCETSPCQNQGKCKDGLGEYTCTCLEGFEGKNCELFTRKLCSLDNGDCDQFCHEEQNSVVCSCARGYTLADNGKACIPTGPYPCGKQTLER
heavy: IVGGQECKDGECPWQALLINEENEGFCGGTILSEFYILTAAHCLYQAKRFKVRVGDRNTEQEEGGEAVHEVEVVIKHNRFTKETYDFDIAVLRLKTPITFRMNVAPACLPERDWAESTLMTQKTGIVSGFGRTHEKGRQSTRLKMLEVPYVDRNSCKLSSSFIITQNMFCAGYDTKQEDACQGDAGGPHVTRFKDTYFVTGIVSWGEGCARKGKYGIYTKVTAFLKWIDRSMKTRGLPKAKSHAPEVITSSPLK
notes: Made in CHO cells; the two chains are linked by a disulfide bond; also called target protein; functional protein

The target of assay [1] is B2. Nature of the assay: affinity column loading of purified r-Antidote, 1 mL resin, 20 mM Tris/150 mM NaCl pH 7.4.
The target of assay [2] is Aprotinin, immobilised on agarose (Aprotinin-Agarose, catalog #A2268) (UniProt P00974 36-93). Nature of the assay: affinity column loading, 1 mL resin, 20 mM Tris/150 mM NaCl pH 7.4. As to the method:
Commercially available affinity resins were screened for their efficacy in purifying r-Antidote. Various affinity resins were packed into a column (such as a Tricorn column, GE) with 1 mL of resin. Following sanitization according to manufacturer's recommendations, the column was equilibrated with 20 mM Tris/150 mM NaCl at pH 7.4, followed by testing their ability to bind r-Antidote in the same buffer. r-Antidote at a concentration of 0.145 mg/mL in PBS (Phosphate Buffered Saline), was loaded onto the column at a flow rate of 1 mL/min by injection (1 mL).

For the molecule B1, the binding result in assay [1] is reported as “binds”.

As for B2, in assay [2], the binding result was “no binding (tested: 0.145 mg/mL (1 mL injected))”.
